We go through two molecules from article PMC9734383 (Nature Communications, 2022).

The target in assay [1] is H3 HA (Influenza A virus H3N2, probably A/Hong …, UniProt Q91MA7, strain). In words: SEC. The conditions noted are these: both partners purified.
Assay [2] has as its target H3 HA (recombinant HA of the panel) (Influenza A virus H3N2, probably A/Hong …, UniProt Q91MA7, biotinylated (in the BLI assay)). Briefly: BLI. To be noted: both partners purified.

B1: PN-SIA28 Fab (Fab, V domains shown)
VH: QVQLVESGGGVVQPGRSLRLSCAASGFPFSSYGMHWVRQAPGKGLEWVAGVSYDGSYKYYADSVKGRFTISRDSSKSTLYLQMNSLRPEDTAVYYCARPSAIFGIYIILNGLDVWGQGTTVTVSS
VL: EIVLTQSPSSVSASVGDRVTITCRATQGISSWLAWYQQKPGKPPKLLIFGASSLQSGVPSRFSGSGSGTDFTLTISSLQPEDFATYFCQQAHSFPLTFGGGTKVEIK
For the molecule B1, the binding result in assay [1] is listed as “binds”.

B2: PN-SIA28 Fab (Fab, V domains shown)
VH: QVQLVESGGGVVQPGRSLRLSCAASGFPFSSYGMHWVRQAPGKGLEWVAGVSYDGSYKYYADSVKGRFTISRDSSKSTLYLQMNSLRPEDTAVYYCARPSAIFGIYIILNGLDVWGQGTTVTVSS
VL: EIVLTQSPSSVSASVGDRVTITCRATQGISSWLAWYQQKPGKPPKLLIFGASSLQSGVPSRFSGSGSGTDFTLTISSLQPEDFATYFCQQAHSFPLTFGGGTKVEIK
notes: also called PN-SIA28 Fab fragment
On to B2, for which the binding result in assay [2] is recorded as “binds”.
